# “And” between values parts separate entries of the source, which are not always exact repeats. Identical values can stand only once.
# T1: human B7-H4 extracellular domain (human, UniProt Q7Z7D3 29-258)
# T1 construct: Soluble ECD used as SPR analyte; also called huB7-H4 ECD; huB7-H4
# T1 sequence: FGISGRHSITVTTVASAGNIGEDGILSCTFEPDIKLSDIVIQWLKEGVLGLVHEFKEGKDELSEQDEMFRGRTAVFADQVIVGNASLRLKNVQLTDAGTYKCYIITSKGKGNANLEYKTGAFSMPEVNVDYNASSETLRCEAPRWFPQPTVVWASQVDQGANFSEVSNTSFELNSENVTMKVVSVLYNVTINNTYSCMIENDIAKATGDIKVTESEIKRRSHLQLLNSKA
# T2: human B7-H4 extracellular domain (human, UniProt Q7Z7D3 29-258)
# T2 construct: For SPR it says only human B7-H4 ECD; also called Hu B7-H4 ECD; huB7-H4 ECD
# T2 sequence: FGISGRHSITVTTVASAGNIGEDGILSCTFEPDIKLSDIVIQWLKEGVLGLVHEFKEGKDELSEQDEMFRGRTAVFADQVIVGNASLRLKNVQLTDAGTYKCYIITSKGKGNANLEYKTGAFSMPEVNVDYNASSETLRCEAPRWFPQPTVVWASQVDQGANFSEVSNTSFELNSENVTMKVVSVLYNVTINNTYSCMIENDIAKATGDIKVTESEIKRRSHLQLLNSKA
# Target: T1, human B7-H4 extracellular domain
# Assay: SPR 37 C; IgG1 on anti-hFc chip, ECD analyte;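 note: antibodies captured, then B7-H4 ECD injected at five 3-fold dilutions from 300 nM, 65 s association and 600 s dissociation, fitted to a 1:1 Langmuir model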
# 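Throughout, for IC50: tested antibody premixed 1:1 with biotinylated parental antibody, 2 h at room temperature on coated ECD, bound biotin detected via streptavidin-HRP, absorbance read at 450 nm.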
Kd [nM],koff [s⁻¹],kon [M⁻¹ s⁻¹],Binder
13.8,0.0054,392000,"B7-H4 antibody 1080 (antibody, human IgG1, kappa, V domains shown, IgG1 mAb format) VH: EVQLVESGGGLVQPGGSLRLSCAVSGGSFSGYYWNWIRQPPGKGLEWIGEINHSGSATYNPSLKSRVTISVDTAKNSLYLQMNSLRAEDTAVYYCARGLYNWNVDHWGQGTLVTVSS VL: DIQMTQSPSSLSASVGDRVTITCRASQGIRNDLGWYQQKPGKAPKRLIYAASSLQSGVPSRFSGSGSGTDFTLTISSLQPEDFATYYCLQHNAYPRTFGGGTKVEIKR"
11.8,0.00539,454000,"B7-H4 antibody 0934 (antibody, human IgG1, kappa, V domains shown, IgG1 mAb format) VH: EVQLVESGGGLVQPGGSLRLSCAVSGGSFSGYYWNWVRQAPGKGLEWIGEINHSGSATYNPSLKSRVTISVDTAKNSLYLQMNSLRAEDTAVYYCARGLYNWNVDHWGQGTLVTVSS VL: DIQMTQSPSSLSASVGDRVTITCRASQGIRNDLGWYQQKPGKAPKRLIYAASSLQSGVPSRFSGSGSGTDFTLTISSLQPEDFATYYCLQHSSYPRTFGGGTKVEIKR"

# Target: T2, human B7-H4 extracellular domain
# Assay: competition ELISA on coated huB7-H4 ECD; competitor biotinylated 0052 (by series, not given)
row,IC50,Binder
1,35.5 nM,"B7-H4 antibody 0544 (antibody, human IgG1, kappa, V domains shown) VH: EVQLVESGGGLVQPGGSLRLSCAASGGSFSGYYWNWIRQPPGKGLEWIGEIDHQGSTKYNPSLKSRVTISVDTAKNSLYLQMNSLRAEDTAVYYCARGLYNWNVDHWGQGTLVTVSS VL: DIQMTQSPSSLSASVGDRVTITCRASQGIRNDLGWYQQKPGKAPKRLIYAASSLQSGVPSRFSGSGSGTDFTLTISSLQPEDFATYYCLQHSSYPRTFGGGTKVEIKR"
2,5.94 nM and 14.9 nM,"B7-H4 antibody 0279 (antibody, human IgG1, kappa, V domains shown) VH: EVQLVESGGGLVQPGGSLRLSCAVSGGSFSGYYWNWVRQAPGKGLEWIGEINHSGSATYNPSLKSRFTISVDTAKNSFYLQMNSLRAEDTAVYYCARGLYNWNVDHWGQGTLVTVSS VL: DIQMTQSPSSLSASVGDRVTITCRASQGIRNDLGWYQQKPGKAPKRLIYAASSLQSGVPSRFSGSGSGTEFTLTISSLQPEDFATYYCLQHNSYPRTFGGGTKVEIKR"
3,7.87 nM,"B7-H4 antibody 0385 (antibody, human IgG1, kappa, V domains shown) VH: QVQLQQWGAGLLKPSETLPLTCAVYGGSFSGYYWNWIRQPPGKGLEWIGEINHSGSATYNPSLKSRVTISVDTSKNHFSLKLSSVTAADTAVYFCARGLYNWNVDHWGQGTLVTVSS VL: DIQMTQSPSSLSASVGDRVTITCRASQGIRNDLGWYQQKPGKAPKRLIYAASSLQSGVPSRFSGSGSGTDFTLTISSLQPEDFATYYCLQHQSYPRTFGGGTKVEIKR"
4,7.2 nM and 12.9 nM,"B7-H4 antibody 0283 (antibody, human IgG1, kappa, V domains shown) VH: QVQLQQWGAGLLKPSETLPLTCAVYGGSFSGYYWNWIRQPPGKGLEWIGEINHSGSATYNPSLKSRVTISVDTSKNHFSLKLSSVTAADTAVYFCARGLYNWNVDHWGQGTLVTVSS VL: DIQMTQSPSSLSASVGDRVTITCRASQGIRNDLGWYQQKPGKAPKRLIYAASSLQSGVPSRFSGSGSGTDFTLTISSLQPEDFATYYCLQHNSYPRTFGGGTKVEIKR"
5,9.07 nM,"B7-H4 antibody 0270 (antibody, human IgG1, kappa, V domains shown) VH: QVQLQQWGAGLLKPSETLSLTCAVYGGSFSGYYWNWIRQPPGKGLEWIGEINHSGSTKYNPSLKSRVTISGDTSKNQFSLKLNSVTAADTAVYYCVRGLYNWNVDSWGQGTLVTVSS VL: DIQMTQSPSSLSASVGDRVTITCRASQGIRNDLGWYQQKPGKAPKRLIYVASSLQSGVPSRFSGSGSGTDFTLTISSLQPEDFATYYCLQHNSYPYTFGQGTKLEIKR"
6,13.6 nM,"B7-H4 antibody 0391 (antibody, human IgG1, kappa, V domains shown) VH: QVQLQQWGAGLLKPSETLPLTCAVYGGSFSGYYWNWIRQPPGKGLEWIGEINHSGSATYNPSLKSRVTISVDTSKNHFSLKLSSVTAADTAVYFCARGLYNWNVDHWGQGTLVTVSS VL: DIQMTQSPSSLSASVGDRVTITCRASQGIRNDLGWYQQKPGKAPKRLIYAASSLQSGVPSRFSGSGSGTDFTLTISSLQPEDFATYYCLQHASYPYTFGQGTKLEIKR"
7,15.2 nM,"B7-H4 antibody 0390 (antibody, human IgG1, kappa, V domains shown) VH: QVQLQQWGAGLLKPSETLPLTCAVYGGSFSGYYWNWIRQPPGKGLEWIGEINHSGSATYNPSLKSRVTISVDTSKNHFSLKLSSVTAADTAVYFCARGLYNWNVDHWGQGTLVTVSS VL: DIQMTQSPSSLSASVGDRVTITCRASQGIRNDLGWYQQKPGKAPKRLIYAASSLQSGVPSRFSGSGSGTDFTLTISSLQPEDFATYYCLQHQSYPYTFGQGTKLEIKR"
8,3.6 nM,"B7-H4 antibody 0934 (antibody, human IgG1, kappa, V domains shown) VH: EVQLVESGGGLVQPGGSLRLSCAVSGGSFSGYYWNWVRQAPGKGLEWIGEINHSGSATYNPSLKSRVTISVDTAKNSLYLQMNSLRAEDTAVYYCARGLYNWNVDHWGQGTLVTVSS VL: DIQMTQSPSSLSASVGDRVTITCRASQGIRNDLGWYQQKPGKAPKRLIYAASSLQSGVPSRFSGSGSGTDFTLTISSLQPEDFATYYCLQHSSYPRTFGGGTKVEIKR"
9,42.3 nM,"B7-H4 antibody 0546 (antibody, human IgG1, kappa, V domains shown) VH: EVQLVESGGGLVQPGGSLRLSCAVSGGSFSGYYWNWIRQPPGKGLEWIGEIDHQGSTKYNPSLKSRVTISVDTAKNSLYLQMNSLRAEDTAVYYCARELYNWNVDHWGQGTLVTVSS VL: DIQMTQSPSSLSASVGDRVTITCRASQGIRNDLGWYQQKPGKAPKRLIYAASSLQSGVPSRFSGSGSGTDFTLTISSLQPEDFATYYCLQHSSYPRTFGGGTKVEIKR"
10,19 nM,"B7-H4 antibody 0277 (antibody, human IgG1, kappa, V domains shown) VH: EVQLVESGGGLVQPGGSLRLSCAASGGSFSGYYWNWVRQAPGKGLEWVAEINHSGSATYNPSLKSRFTISRDNAKNSLYLQMNSLRAEDTAVYYCARGLYNWNVDHWGQGTLVTVSS VL: DIQMTQSPSSLSASVGDRVTITCRASQGIRNDLGWYQQKPGKAPKRLIYAASSLQSGVPSRFSGSGSGTEFTLTISSLQPEDFATYYCLQHNSYPRTFGGGTKVEIKR"
11,9.42 nM,"B7-H4 antibody 0267 (antibody, human IgG1, kappa, V domains shown) VH: EVQLVESGGGLVQPGGSLRLSCAASGGSFSGYYWNWVRQAPGKGLEWIGEINHSGSTKYNPSLKSRFTISGDNAKNSFYLQMNSLRAEDTAVYYCVRGLYNWNVDSWGQGTLVTVSS VL: DIQMTQSPSSLSASVGDRVTITCRASQGIRNDLGWYQQKPGKAPKRLIYVASSLQSGVPSRFSGSGSGTEFTLTISSLQPEDFATYYCLQHNSYPYTFGQGTKLEIKR"
12,11.3 nM,"B7-H4 antibody 0388 (antibody, human IgG1, kappa, V domains shown) VH: QVQLQQWGAGLLKPSETLPLTCAVYGGSFSGYYWNWIRQPPGKGLEWIGEINHSGSATYNPSLKSRVTISVDTSKNHFSLKLSSVTAADTAVYFCARGLYNWNVDHWGQGTLVTVSS VL: DIQMTQSPSSLSASVGDRVTITCRASQGIRNDLGWYQQKPGKAPKRLIYAASSLQSGVPSRFSGSGSGTDFTLTISSLQPEDFATYYCLQHNAYPYTFGQGTKLEIKR"
13,2.5 nM,"B7-H4 antibody 0911 (antibody, human IgG1, kappa, V domains shown) VH: EVQLVESGGGLVQPGGSLRLSCAVSGGSFSGYYWNWIRQPPGKGLEWIGEINHSGSATYNPSLKSRVTISVDTAKNSLYLQMNSLRAEDTAVYYCARGLYNWNVDHWGQGTLVTVSS VL: DIQMTQSPSSLSASVGDRVTITCRASQGIRNDLGWYQQKPGKAPKRLIYAASSLQSGVPSRFSGSGSGTDFTLTISSLQPEDFATYYCLQHSSYPRTFGGGTKVEIKR"
14,2.1 nM,"B7-H4 antibody 1083 (antibody, human IgG1, kappa, V domains shown) VH: EVQLVESGGGLVQPGGSLRLSCAASGGSFSGYYWNWIRQPPGKGLEWIGEINHSGSATYNPSLKSRVTISVDTAKNSFYLQMNSLRAEDTAVYYCARGLYNWNVDHWGQGTLVTVSS VL: DIQMTQSPSSLSASVGDRVTITCRASQGIRNDLGWYQQKPGKAPKRLIYAASSLQSGVPSRFSGSGSGTDFTLTISSLQPEDFATYYCLQHNAYPRTFGGGTKVEIKR"
15,7.17 nM,"B7-H4 antibody 0383 (antibody, human IgG1, kappa, V domains shown) VH: QVQLQQWGAGLLKPSETLPLTCAVYGGSFSGYYWNWIRQPPGKGLEWIGEINHSGSATYNPSLKSRVTISVDTSKNHFSLKLSSVTAADTAVYFCARGLYNWNVDHWGQGTLVTVSS VL: DIQMTQSPSSLSASVGDRVTITCRASQGIRNDLGWYQQKPGKAPKRLIYAASSLQSGVPSRFSGSGSGTDFTLTISSLQPEDFATYYCLQHNAYPRTFGGGTKVEIKR"
16,9.2 nM,"B7-H4 antibody 0386 (antibody, human IgG1, kappa, V domains shown) VH: QVQLQQWGAGLLKPSETLPLTCAVYGGSFSGYYWNWIRQPPGKGLEWIGEINHSGSATYNPSLKSRVTISVDTSKNHFSLKLSSVTAADTAVYFCARGLYNWNVDHWGQGTLVTVSS VL: DIQMTQSPSSLSASVGDRVTITCRASQGIRNDLGWYQQKPGKAPKRLIYAASSLQSGVPSRFSGSGSGTDFTLTISSLQPEDFATYYCLQHASYPRTFGGGTKVEIKR"
17,6.91 nM,"B7-H4 antibody 0384 (antibody, human IgG1, kappa, V domains shown) VH: QVQLQQWGAGLLKPSETLPLTCAVYGGSFSGYYWNWIRQPPGKGLEWIGEINHSGSATYNPSLKSRVTISVDTSKNHFSLKLSSVTAADTAVYFCARGLYNWNVDHWGQGTLVTVSS VL: DIQMTQSPSSLSASVGDRVTITCRASQGIRNDLGWYQQKPGKAPKRLIYAASSLQSGVPSRFSGSGSGTDFTLTISSLQPEDFATYYCLQHSSYPRTFGGGTKVEIKR"
18,3.5 nM,"B7-H4 antibody 1081 (antibody, human IgG1, kappa, V domains shown) VH: EVQLVESGGGLVQPGGSLRLSCAVSGGSFSGYYWNWIRQPPGKGLEWIGEIDHQGSTKYNPSLKSRVTISVDTAKNSFYLQMNSLRAEDTAVYYCARGLYNWNVDHWGQGTLVTVSS VL: DIQMTQSPSSLSASVGDRVTITCRASQGIRNDLGWYQQKPGKAPKRLIYAASSLQSGVPSRFSGSGSGTDFTLTISSLQPEDFATYYCLQHNAYPRTFGGGTKVEIKR"
19,2 nM,"B7-H4 antibody 1082 (antibody, human IgG1, kappa, V domains shown) VH: EVQLVESGGGLVQPGGSLRLSCAASGGSFSGYYWNWVRQAPGKGLEWIGEINHSGSATYNPSLKSRVTISVDTAKNSLYLQMNSLRAEDTAVYYCARGLYNWNVDHWGQGTLVTVSS VL: DIQMTQSPSSLSASVGDRVTITCRASQGIRNDLGWYQQKPGKAPKRLIYAASSLQSGVPSRFSGSGSGTDFTLTISSLQPEDFATYYCLQHNAYPRTFGGGTKVEIKR"
